In patent publication US20240279318A1 (NANJING LEGEND BIOTECH, published 2024):
Read-outs that look alike come from different tables or passages of the source. Values belong to the binder of their own block, whether it stands above or below them.

Key:
[1] = molecular target: T1, AFP158/HLA-A*02:01 complex (human); experiment: SPR, antibody captured via mIgG2a-Fc, complex as analyte
T1 construct: biotinylated on the BSP by BirA for ELISA and panning; also called biotinylated AFP158/HLA-A*02:01 complex; Bio-AFP158
Experimental: The binding affinity between selected antibodies and AFP158/HLA-A*02:01 complex was determined by surface plasmon resonance (SPR) on a BIAcore T200 instrument (GE Healthcare). The experiment was carried out as follows. The purified sdAb/scFv-mIgG2aFc protein were captured through mIgG2a-Fc onto the sensorchip. […] On-rate (kₐ) and off-rate (kd) were calculated based on association and dissociation curve, and were used to estimate the equilibrium dissociation constant (KD).

[2] = molecular target: T2, AFP158/HLA-A*02:01 complex (human); experiment: SPR, fold vs AS170036 VL1VH1
T2 construct: flowed as analyte in SPR
Experimental: (§1) The experiment was carried out as follows. The crude scFv protein were captured onto the sensorchip. Different concentrations (320, 160, 40 nM) of AFP158/HLA-A*02:01 complex flowed over the sensorchip surface, and were allowed to bind the antibody fragment for 100 s followed by injection of the running buffer to allow dissociation of the complex. On-rate (kd) and off-rate (kd) were calculated based on association and dissociation curve, and were used to estimate the equilibrium dissociation constant (KD).

[3] = molecular target: T2, AFP158/HLA-A*02:01 complex; experiment: SPR, crude scFv captured, pMHC analyte
[4] = molecular target: T2, AFP158/HLA-A*02:01 complex; experiment: SPR, crude scFv captured, pMHC analyte; remark: listed apart in the source
Experimental: as §1
(§2) The crude scFv muteins were then subjected to SPR affinity measurement by the method mentioned above.

[5] = molecular target: T2, AFP158/HLA-A*02:01 complex; experiment: SPR, crude scFv captured, pMHC analyte; remark: listed apart in the source
Experimental: as §1

[6] = molecular target: T2, AFP158/HLA-A*02:01 complex; experiment: SPR, fold vs AS170036 VL1VH1; remark: listed apart in the source
Experimental: as §1, §2

[7] = molecular target: T2, AFP158/HLA-A*02:01 complex; experiment: SPR, fold vs AS170036 VL1VH1; remark: listed apart in the source
[8] = molecular target: T3, AFP158/HLA-A*02:01 complex (human); experiment: SPR (BIAcore T200), crude scFv captured, complex flowed over
T3 construct: flowed over the chip as analyte; also called AFP158 peptide/HLA-A*02:01 complex
Experimental: as §1
The 84 muteins were then tested for their selectivity. The 12 recombinant AFP158 homologous peptides/HLA-A*02:01 complex were mixed in three groups (group 1: ZNF566 and ARNTL, group 2: CDC14A, PTP4A1, BRCA2 and RCL1, group 3: OR1I1, OR51B6, OR6C1, ATG9A, RP1 and NR2E1). The binding of the 84 antibodies to these complexes were then measured by method described above.

- Kd [1]: 0.095 µM
- koff [1]: 0.039 s⁻¹
- kon [1]: 410000 M⁻¹ s⁻¹
B1: AS167821 sdAb-mIgG2aFc (Fc fusion, not shown: a dimerising Fc or GST)
chain: QVRLVESGGGSVQAGGSLRLSCAASGRTYSTYCMGWFRQAPGKEREGVATIYIGSGRTYYVDSVKGRFTISQDNAKNTLYLQMNNLKPEDTAMYYCTADVDPYESSWSRGLGYWGQGTQVTVSS
notes: i647-labelled for flow cytometry

- Affinity increase [2]: 1 fold
- Kd [3]: 0.23 µM
- koff [3]: 0.11 s⁻¹
- kon [3]: 490000 M⁻¹ s⁻¹
- Kd [4]: 0.23 µM
- koff [4]: 0.11 s⁻¹
- kon [4]: 490000 M⁻¹ s⁻¹
- Kd [5]: 0.27 µM
- koff [5]: 0.1 s⁻¹
- kon [5]: 380000 M⁻¹ s⁻¹
- Affinity increase [6]: 1 fold
- Affinity increase [7]: 1 fold
B2: AS170036 VL1VH1 (scFv)
scFv: QSALTQPRSVSGSPGQSVTISCAGTSSDVGSENYVSWYQQHPGKAPKLMIYQVNKRASGVPDRFSGSKSGNTASLTISGLQAEDEADYYCASYRSSDHNIVFGGGTKLTVLGGGGSGGGGSGGGGSEVQLVESGGGLVQPGGSLRLSCAASGFTFSSYAMSWVRQAPGKGLEWVSTINSGTGSPYYADSVKGRFTISRDNSKNTLYLQMNSLRAEDTAVYYCAKNFFDGSWFLGPPAMDYWGQGTLVTVSSHHHHHH
notes: Crude scFv from E. coli TG1 supernatant; also called AS170036 VL1VH1 scFv

- SPR binding level [8]: 196 RU
B3: AS170036 VL1VH1 (scFv)
scFv: QSALTQPRSVSGSPGQSVTISCAGTSSDVGSENYVSWYQQHPGKAPKLMIYQVNKRASGVPDRFSGSKSGNTASLTISGLQAEDEADYYCASYRSSDHNIVFGGGTKLTVLGGGGSGGGGSGGGGSEVQLVESGGGLVQPGGSLRLSCAASGFTFSSYAMSWVRQAPGKGLEWVSTINSGTGSPYYADSVKGRFTISRDNSKNTLYLQMNSLRAEDTAVYYCAKNFFDGSWFLGPPAMDYWGQGTLVTVSSHHHHHH
notes: Crude scFv from E. coli TG1 supernatant, captured on the chip; also called AS170036 VL1VH1 scFv

- Affinity increase [2]: 2.9 fold
- Kd [5]: 0.084 µM
- koff [5]: 0.025 s⁻¹
- kon [5]: 290000 M⁻¹ s⁻¹
B4: AS170036 VL1VH1-VLH98T (scFv)
scFv: QSALTQPRSVSGSPGQSVTISCAGTSSDVGSENYVSWYQQHPGKAPKLMIYQVNKRASGVPDRFSGSKSGNTASLTISGLQAEDEADYYCASYRSSDTNIVFGGGTKLTVLGGGGSGGGGSGGGGSEVQLVESGGGLVQPGGSLRLSCAASGFTFSSYAMSWVRQAPGKGLEWVSTINSGTGSPYYADSVKGRFTISRDNSKNTLYLQMNSLRAEDTAVYYCAKNFFDGSWFLGPPAMDYWGQGTLVTVSSHHHHHH

- SPR binding level [8]: 738 RU
B5: 03-AS170036 VL1VH1-56Y98Q (scFv)
scFv: QSALTQPRSVSGSPGQSVTISCAGTSSDVGSENYVSWYQQHPGKAPKLMIYQVNKRASGVPDRFSGSKSGNTASLTISGLQAEDEADYYCASYRSSDQNIVFGGGTKLTVLGGGGSGGGGSGGGGSEVQLVESGGGLVQPGGSLRLSCAASGFTFSSYAMSWVRQAPGKGLEWVSTINSGTYSPYYADSVKGRFTISRDNSKNTLYLQMNSLRAEDTAVYYCAKNFFDGSWFLGPPAMDYWGQGTLVTVSSHHHHHH
notes: Crude scFv mutein of AS170036 VL1VH1

- SPR binding level [8]: 554 RU
B6: 15-AS170036 VL1VH1-57M98Q (scFv)
scFv: QSALTQPRSVSGSPGQSVTISCAGTSSDVGSENYVSWYQQHPGKAPKLMIYQVNKRASGVPDRFSGSKSGNTASLTISGLQAEDEADYYCASYRSSDQNIVFGGGTKLTVLGGGGSGGGGSGGGGSEVQLVESGGGLVQPGGSLRLSCAASGFTFSSYAMSWVRQAPGKGLEWVSTINSGTGMPYYADSVKGRFTISRDNSKNTLYLQMNSLRAEDTAVYYCAKNFFDGSWFLGPPAMDYWGQGTLVTVSSHHHHHH
notes: as for B5

- SPR binding level [8]: 571 RU
B7: 22-AS170036 VL1VH1-57H108A (scFv)
scFv: QSALTQPRSVSGSPGQSVTISCAGTSSDVGSENYVSWYQQHPGKAPKLMIYQVNKRASGVPDRFSGSKSGNTASLTISGLQAEDEADYYCASYRSSDHNIVFGGGTKLTVLGGGGSGGGGSGGGGSEVQLVESGGGLVQPGGSLRLSCAASGFTFSSYAMSWVRQAPGKGLEWVSTINSGTGHPYYADSVKGRFTISRDNSKNTLYLQMNSLRAEDTAVYYCAKNFFDGSWFLAPPAMDYWGQGTLVTVSSHHHHHH
notes: as for B5

- SPR binding level [8]: 526 RU
B8: 19-AS170036 VL1VH1-56N108A (scFv)
scFv: QSALTQPRSVSGSPGQSVTISCAGTSSDVGSENYVSWYQQHPGKAPKLMIYQVNKRASGVPDRFSGSKSGNTASLTISGLQAEDEADYYCASYRSSDHNIVFGGGTKLTVLGGGGSGGGGSGGGGSEVQLVESGGGLVQPGGSLRLSCAASGFTFSSYAMSWVRQAPGKGLEWVSTINSGTNSPYYADSVKGRFTISRDNSKNTLYLQMNSLRAEDTAVYYCAKNFFDGSWFLAPPAMDYWGQGTLVTVSSHHHHHH
notes: as for B5

- SPR binding level [8]: 614 RU
B9: 10-AS170036 VL1VH1-57K98F (scFv)
scFv: QSALTQPRSVSGSPGQSVTISCAGTSSDVGSENYVSWYQQHPGKAPKLMIYQVNKRASGVPDRFSGSKSGNTASLTISGLQAEDEADYYCASYRSSDFNIVFGGGTKLTVLGGGGSGGGGSGGGGSEVQLVESGGGLVQPGGSLRLSCAASGFTFSSYAMSWVRQAPGKGLEWVSTINSGTGKPYYADSVKGRFTISRDNSKNTLYLQMNSLRAEDTAVYYCAKNFFDGSWFLGPPAMDYWGQGTLVTVSSHHHHHH
notes: as for B5

- SPR binding level [8]: 601 RU
B10: 16-AS170036 VL1VH1-56Y108A (scFv)
scFv: QSALTQPRSVSGSPGQSVTISCAGTSSDVGSENYVSWYQQHPGKAPKLMIYQVNKRASGVPDRFSGSKSGNTASLTISGLQAEDEADYYCASYRSSDHNIVFGGGTKLTVLGGGGSGGGGSGGGGSEVQLVESGGGLVQPGGSLRLSCAASGFTFSSYAMSWVRQAPGKGLEWVSTINSGTYSPYYADSVKGRFTISRDNSKNTLYLQMNSLRAEDTAVYYCAKNFFDGSWFLAPPAMDYWGQGTLVTVSSHHHHHH
notes: as for B5

- SPR binding level [8]: 554 RU
B11: 25-AS170036 VL1VH1-57K108A (scFv)
scFv: QSALTQPRSVSGSPGQSVTISCAGTSSDVGSENYVSWYQQHPGKAPKLMIYQVNKRASGVPDRFSGSKSGNTASLTISGLQAEDEADYYCASYRSSDHNIVFGGGTKLTVLGGGGSGGGGSGGGGSEVQLVESGGGLVQPGGSLRLSCAASGFTFSSYAMSWVRQAPGKGLEWVSTINSGTGKPYYADSVKGRFTISRDNSKNTLYLQMNSLRAEDTAVYYCAKNFFDGSWFLAPPAMDYWGQGTLVTVSSHHHHHH
notes: as for B5

- SPR binding level [8]: 564 RU
B12: 05-AS170036 VL1VH1-56N98I (scFv)
scFv: QSALTQPRSVSGSPGQSVTISCAGTSSDVGSENYVSWYQQHPGKAPKLMIYQVNKRASGVPDRFSGSKSGNTASLTISGLQAEDEADYYCASYRSSDINIVFGGGTKLTVLGGGGSGGGGSGGGGSEVQLVESGGGLVQPGGSLRLSCAASGFTFSSYAMSWVRQAPGKGLEWVSTINSGTNSPYYADSVKGRFTISRDNSKNTLYLQMNSLRAEDTAVYYCAKNFFDGSWFLGPPAMDYWGQGTLVTVSSHHHHHH
notes: as for B5

- Affinity increase [2]: 3.2 fold
- Kd [5]: 0.078 µM
- koff [5]: 0.018 s⁻¹
- kon [5]: 230000 M⁻¹ s⁻¹
B13: AS170036 VL1VH1-VLH98V (scFv)
scFv: QSALTQPRSVSGSPGQSVTISCAGTSSDVGSENYVSWYQQHPGKAPKLMIYQVNKRASGVPDRFSGSKSGNTASLTISGLQAEDEADYYCASYRSSDVNIVFGGGTKLTVLGGGGSGGGGSGGGGSEVQLVESGGGLVQPGGSLRLSCAASGFTFSSYAMSWVRQAPGKGLEWVSTINSGTGSPYYADSVKGRFTISRDNSKNTLYLQMNSLRAEDTAVYYCAKNFFDGSWFLGPPAMDYWGQGTLVTVSSHHHHHH

- SPR binding level [8]: 627 RU
B14: 27-AS170036 VL1VH1-57K108S (scFv)
scFv: QSALTQPRSVSGSPGQSVTISCAGTSSDVGSENYVSWYQQHPGKAPKLMIYQVNKRASGVPDRFSGSKSGNTASLTISGLQAEDEADYYCASYRSSDHNIVFGGGTKLTVLGGGGSGGGGSGGGGSEVQLVESGGGLVQPGGSLRLSCAASGFTFSSYAMSWVRQAPGKGLEWVSTINSGTGKPYYADSVKGRFTISRDNSKNTLYLQMNSLRAEDTAVYYCAKNFFDGSWFLSPPAMDYWGQGTLVTVSSHHHHHH
notes: as for B5
